Source: patent US20150023979A1 (VALDOSPAN, published 2015)

B1: ACAB167 (antibody, V domains shown)
VH: EVQLEESGGGLVQPKGSLKLSCTASGFPFNTYAMNWVRQAPGKGLEWVARIRTKSNNYATYYADSVKDRFTISRDDSQNMLYLQMNNLKTEDTAMYYCVRLYGYYFDYWGQGTTLTVSS
VL: DIVMTQSPEIMSASPGEKVTMTCSASSSVSFMFWYQQKSGTSPKIWIYDTSKLASGVPARFSGSGSGTSYSLTVSSMEAEDAATYYCQQWNSNPPTFGVGTKLELKR
notes: the printed entries run on into the first residues of the constant domains; also called HPV16E7 IgG2b antibody ACAB167
B2: ACAB337 (antibody, IgG1, V domains shown)
VH: DVQLQESGPGLVKPSQSLSLTCTVTGHSITSDYAWNWIRQFPGNKLEWVAYISYSGGTGYNPSLKSRISITRDTSKPNQFFLQLNSVTTEDTATYYCACGDYYYGPRDYWGQGTSVTVSS
VL: DILLTQSPAILSVSPGERVSFSCRASQSIGTSIHWYQQRTNGSPRLLIKYASESISGIPSRFSGSGSGTDFTLSINSVESEDIADYYCQQSNYWPFTFGSGTKLEIKR
notes: also called HPV33E7 IgG1 antibody ACAB337

How the values were obtained:
[1] = target: T1, HPV11 E7 protein (low risk type), recombinant (His-TEV-E7 fusion from E. coli) (Human Papilloma Virus type 11 (HPV11), UniProt P04020 1-98); assay: ELISA and dot-blot
T1 construct: mature; also called VE7_HPV11; not shown: N-terminal 6x Histidine tag and TEV cleavage site of the vector
T1 sequence: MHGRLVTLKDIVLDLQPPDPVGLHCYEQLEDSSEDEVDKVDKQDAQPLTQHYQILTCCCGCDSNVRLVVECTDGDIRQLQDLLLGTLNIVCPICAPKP

[2] = target: T2, HPV38 E7 protein (beta-papillomavirus), recombinant (His-TEV-E7 fusion from E. coli) (Human Papilloma Virus type 38 (HPV38), UniProt Q80908 1-100); assay: ELISA and dot-blot
T2 construct: mature; also called HPVE7 38; VE7_HPV38; not shown: N-terminal 6x Histidine tag and TEV cleavage site of the vector
T2 sequence: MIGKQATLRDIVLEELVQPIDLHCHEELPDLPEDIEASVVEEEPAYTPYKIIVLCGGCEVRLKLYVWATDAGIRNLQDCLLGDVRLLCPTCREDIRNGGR

[3] = target: T3, HPV5 E7 protein (beta-papillomavirus), recombinant (His-TEV-E7 fusion from E. coli) (Human Papilloma Virus type 5 (HPV5), UniProt P06932 1-103); assay: ELISA and dot-blot
T3 construct: mature; also called VE7_HPV05; not shown: N-terminal 6x Histidine tag and TEV cleavage site of the vector
T3 sequence: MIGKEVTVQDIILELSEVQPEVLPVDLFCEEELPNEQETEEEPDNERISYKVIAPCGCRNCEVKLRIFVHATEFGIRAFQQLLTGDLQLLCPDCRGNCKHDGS

[4] = target: T4, HPV6 E7 protein (low risk type), recombinant (His-TEV-E7 fusion from E. coli) (Human Papilloma Virus type 6 (HPV6), UniProt Q84292 1-98); assay: ELISA and dot-blot
T4 construct: mature; the only HPV6 entry in the list of constructs is VE7_HPV6A; also called VE7_HPV6A; not shown: N-terminal 6x Histidine tag and TEV cleavage site of the vector
T4 sequence: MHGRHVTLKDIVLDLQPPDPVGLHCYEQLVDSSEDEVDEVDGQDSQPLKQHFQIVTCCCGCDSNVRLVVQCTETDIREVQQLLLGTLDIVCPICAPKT

[5] = target: T5, HPV31 E7 protein, recombinant (His-TEV-E7 fusion from E. coli) (Human Papilloma Virus type 31 (HPV31), UniProt P17387 1-98, CKII phosphorylation of the consensus site serines in the antigen preparation of Example 2); assay: ELISA and dot-blot, semiquantitative crossreactivity (++ strong positive)
T5 construct: mature; also called VE7_HPV31; not shown: N-terminal 6x Histidine tag and TEV cleavage site of the vector
T5 sequence: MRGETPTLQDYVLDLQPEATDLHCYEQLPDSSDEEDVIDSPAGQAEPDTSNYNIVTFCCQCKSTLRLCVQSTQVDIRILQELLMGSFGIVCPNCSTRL

[6] = target: T6, HPV58 E7 protein, recombinant (His-TEV-E7 fusion from E. coli) (Human Papilloma Virus type 58 (HPV58), UniProt P26557 1-98, CKII phosphorylation of the consensus site serines in the antigen preparation of Example 2); assay: as above
T6 construct: mature; also called VE7_HPV58; not shown: N-terminal 6x Histidine tag and TEV cleavage site of the vector
T6 sequence: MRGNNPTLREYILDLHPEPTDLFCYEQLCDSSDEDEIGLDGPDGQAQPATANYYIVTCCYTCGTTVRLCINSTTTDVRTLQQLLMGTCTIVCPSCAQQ

[7] = target: T7, HPV52 E7 protein, recombinant (His-TEV-E7 fusion from E. coli) (Human Papilloma Virus type 52 (HPV52), UniProt P36831 1-99, CKII phosphorylation of the consensus site serines in the antigen preparation of Example 2); assay: as above
T7 construct: mature; also called VE7_HPV52; not shown: N-terminal 6x Histidine tag and TEV cleavage site of the vector
T7 sequence: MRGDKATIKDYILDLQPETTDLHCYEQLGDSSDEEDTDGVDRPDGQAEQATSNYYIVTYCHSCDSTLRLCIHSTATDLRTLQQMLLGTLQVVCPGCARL

[8] = target: T8, HPV33 E7 protein, recombinant (His-TEV-E7 fusion from E. coli) (Human Papilloma Virus type 33 (HPV33), UniProt P06429 1-97, CKII phosphorylation of the consensus site serines in the antigen preparation of Example 2; biotin on primary amines in the SPR assay); assay: as above
T8 construct: mature; also called VE7_HPV33; not shown: N-terminal 6x Histidine tag and TEV cleavage site of the vector
T8 sequence: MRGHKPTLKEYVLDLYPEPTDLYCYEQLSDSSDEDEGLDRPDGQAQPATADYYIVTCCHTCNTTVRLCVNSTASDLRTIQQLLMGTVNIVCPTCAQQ

[9] = target: T9, HPV56 E7 protein, recombinant (His-TEV-E7 fusion from E. coli) (Human Papilloma Virus type 56 (HPV56), UniProt P36833 1-105, CKII phosphorylation of the consensus site serines in the antigen preparation of Example 2); assay: ELISA and dot-blot, semiquantitative crossreactivity
T9 construct: mature; also called VE7_HPV56; not shown: N-terminal 6x Histidine tag and TEV cleavage site of the vector
T9 sequence: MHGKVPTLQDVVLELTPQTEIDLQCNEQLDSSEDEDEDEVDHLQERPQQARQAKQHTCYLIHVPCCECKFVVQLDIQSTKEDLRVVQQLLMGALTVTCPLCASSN

[10] = target: T10, HPV18 E7 protein, recombinant (His-TEV-E7 fusion from E. coli) (Human Papilloma Virus type 18 (HPV18), UniProt P06788 1-105, CKII phosphorylation of the consensus site serines in the antigen preparation of Example 2; biotin on primary amines in the SPR assay); assay: as above
T10 construct: mature; also called VE7_HPV18; not shown: N-terminal 6x Histidine tag and TEV cleavage site of the vector
T10 sequence: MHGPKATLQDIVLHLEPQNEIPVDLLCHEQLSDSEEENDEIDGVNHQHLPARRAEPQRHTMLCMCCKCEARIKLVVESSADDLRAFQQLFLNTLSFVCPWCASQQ

[11] = target: T11, HPV35 E7 protein, recombinant (His-TEV-E7 fusion from E. coli) (Human Papilloma Virus type 35 (HPV35), UniProt P27230 1-99, CKII phosphorylation of the consensus site serines in the antigen preparation of Example 2); assay: as above
T11 construct: mature; also called VE7_HPV35; not shown: N-terminal 6x Histidine tag and TEV cleavage site of the vector
T11 sequence: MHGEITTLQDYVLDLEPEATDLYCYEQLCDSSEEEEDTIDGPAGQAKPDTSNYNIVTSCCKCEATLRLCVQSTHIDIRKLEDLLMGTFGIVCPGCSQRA

[12] = target: T12, HPV45 E7 protein, recombinant (His-TEV-E7 fusion from E. coli) (Human Papilloma Virus type 45 (HPV45), UniProt P21736 1-106, CKII phosphorylation of the consensus site serines in the antigen preparation of Example 2; biotin on primary amines in the SPR assay); assay: as above
T12 construct: mature; also called VE7_HPV45; not shown: N-terminal 6x Histidine tag and TEV cleavage site of the vector
T12 sequence: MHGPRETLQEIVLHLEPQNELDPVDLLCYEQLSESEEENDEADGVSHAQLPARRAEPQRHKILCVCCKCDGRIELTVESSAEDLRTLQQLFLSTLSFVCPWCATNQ

[13] = target: T13, HPV51 E7 protein, recombinant (His-TEV-E7 fusion from E. coli) (Human Papilloma Virus type 51 (HPV51), UniProt P26558 1-101, CKII phosphorylation of the consensus site serines in the antigen preparation of Example 2); assay: as above
T13 construct: mature; also called VE7_HPV51; not shown: N-terminal 6x Histidine tag and TEV cleavage site of the vector
T13 sequence: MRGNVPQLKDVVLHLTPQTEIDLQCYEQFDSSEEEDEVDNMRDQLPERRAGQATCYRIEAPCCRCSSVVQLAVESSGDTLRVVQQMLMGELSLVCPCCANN

[14] = target: T9, HPV56 E7 protein, recombinant …; assay: ELISA and dot-blot, semiquantitative crossreactivity; antigens denatured for this antibody
[15] = target: T10, HPV18 E7 protein, recombinant …; assay: as above
[16] = target: T12, HPV45 E7 protein, recombinant …; assay: as above
[17] = target: T13, HPV51 E7 protein, recombinant …; assay: as above
[18] = target: T6, HPV58 E7 protein, recombinant …; assay: ELISA and dot-blot, semiquantitative crossreactivity (++ strong positive); antigens denatured for this antibody
[19] = target: T11, HPV35 E7 protein, recombinant …; assay: as above
[20] = target: T7, HPV52 E7 protein, recombinant …; assay: as above

Binder	binding result [1]	binding result [2]	binding result [3]	binding result [4]	binding result [5]	binding result [6]	binding result [7]	binding result [8]	binding result [9]	binding result [10]	binding result [11]	binding result [12]	binding result [13]	binding result [14]	binding result [15]	binding result [16]	binding result [17]	binding result [18]	binding result [19]	binding result [20]
B1	no binding	no binding	no binding	no binding	binds	binds	binds	binds	no binding	no binding	no binding	no binding	no binding	–	–	–	–	–	–	–
B2	no binding	no binding	no binding	no binding	–	–	–	–	–	–	–	–	–	no binding	no binding	no binding	no binding	binds	binds	binds
